# Source: PMC3182943, “Monalysin, a Novel ß-Pore-Forming Toxin from the Drosophila Pathogen Pseudomonas entomophila, Contributes to Host Intestinal Damage and Lethality” (PLoS Pathogens, 2011)
# B1: recombinant pro-Monalysin (natural protein)
# chain: MTIKEELGQPQSHSIELDEVSKEAASTRAALTSNLSGRFDQYPTKKGDFAIDGYLLDYSSPKQGCWVDGITVYGDIYIGKQNWGTYTRPVFAYLQYVETISIPQNVTTTLSYQLTKGHTRSFETSVNAKYSVGANIDIVNVGSEISTGFTRSESWSTTQSFTDTTEMKGPGTFVIYQVVLVYAHNATSAGRQNANAFAYSKTQAVGSRVDLYYLSAITQRKRVIVPSSNAVTPLDWDTVQRNVLMENYNPGSNSGHFSFDWSAYNDPHRRY
# notes: Monalysin (pro-form, pore-forming toxin) of Pseudomonas entomophila L48, ORF PSEEN3174, residues 1 to 271; 30.2 kDa by MALDI-TOF, called the full-length pro-toxin; TRX-His6-TEV fusion from the vector pETG-20A, removed by His-TEV protease; The text mostly calls this protein 'Monalysin' or 'recombinant Monalysin'; upon storage at 4°C it turns partly into the shorter form; Oligomer of about 18 …
# Target: the molecule itself
# Assay: SEC-MALS; Silica Gel KW804 column (Shodex), 10 mM Tris, 150 mM NaCl, pH 7.5, 0.5 ml/min; MALS/UV/RI with quasi-elastic light scattering; protein loaded at 0.02 mM
protein,measurement,value
B1,stoichiometry N,~18 monomers
